Assay results taken from patent publication US20220273767A1 (SYNTHORX, published 2022).

Columns and labels:
[1] = biological target: T1, IL-10 receptor signaling complex on mouse splenocytes (CD8 T cells, NK cells, B cells) (mouse, UniProt Q61727 17-575; Q61190 20-349); assay: cell-based or functional assay
T1 sequence (looked up) 1: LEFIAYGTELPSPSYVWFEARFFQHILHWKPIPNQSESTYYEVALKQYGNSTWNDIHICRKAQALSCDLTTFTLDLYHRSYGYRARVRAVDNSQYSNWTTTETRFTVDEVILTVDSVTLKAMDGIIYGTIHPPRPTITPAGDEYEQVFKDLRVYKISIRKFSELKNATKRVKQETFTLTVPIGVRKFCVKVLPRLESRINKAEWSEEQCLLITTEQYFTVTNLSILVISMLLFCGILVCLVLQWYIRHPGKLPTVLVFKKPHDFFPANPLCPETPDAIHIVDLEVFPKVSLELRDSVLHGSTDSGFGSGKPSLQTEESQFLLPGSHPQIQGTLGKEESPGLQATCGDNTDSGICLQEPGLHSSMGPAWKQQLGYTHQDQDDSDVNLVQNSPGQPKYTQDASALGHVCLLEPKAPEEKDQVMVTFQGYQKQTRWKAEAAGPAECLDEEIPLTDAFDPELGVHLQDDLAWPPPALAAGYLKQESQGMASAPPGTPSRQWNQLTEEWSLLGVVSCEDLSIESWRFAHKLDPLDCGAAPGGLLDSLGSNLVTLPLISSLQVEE
T1 sequence (looked up) 2: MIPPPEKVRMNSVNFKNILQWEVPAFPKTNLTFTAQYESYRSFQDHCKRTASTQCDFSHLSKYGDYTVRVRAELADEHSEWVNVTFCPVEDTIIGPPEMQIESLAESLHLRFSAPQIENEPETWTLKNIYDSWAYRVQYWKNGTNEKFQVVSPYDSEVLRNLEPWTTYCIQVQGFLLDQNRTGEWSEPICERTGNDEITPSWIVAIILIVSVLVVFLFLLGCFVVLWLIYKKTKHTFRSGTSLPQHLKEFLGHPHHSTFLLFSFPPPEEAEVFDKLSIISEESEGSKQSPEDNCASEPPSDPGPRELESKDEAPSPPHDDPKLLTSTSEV

[2] = biological target: T1, IL-10 receptor signaling complex on …; assay: cell-based or functional assay; remark: listed apart in the source

EC50, STAT3 phosphorylation, B cells, B57BL/6 mouse splenocytes [1]: 0.83 ng/mL | EC50, STAT3 phosphorylation, CD8 T cells, B57BL/6 mouse splenocytes [1]: 3.65 ng/mL | EC50, STAT3 phosphorylation, NK cells, B57BL/6 mouse splenocytes [1]: 1.06 ng/mL | EC50, STAT3 phosphorylation, B cells, Balb/c mouse splenocytes [2]: 1.3 ng/mL | EC50, STAT3 phosphorylation, CD8 T cells, Balb/c mouse splenocytes [2]: 4.07 ng/mL | EC50, STAT3 phosphorylation, NK cells, Balb/c mouse splenocytes [2]: 1.08 ng/mL
B1: Wild-type His-IL-10 (ligand)
chain: MHHHHHHGSSENLYFQSPGQGTQSENSCTHFPGNLPNMLRDLRDAFSRVKTFFQMKDQLDNLLLKESLLEDFKGYLGCQALSEMIQFYLEEVMPQAENQDPDIKAHVNSLGENLKTLRLRLRRCHRFLPCENKSKAVEQVKNAFNKLQEKGIYKAMSEFDIFINYIEAYMTMKIRN
